Source: the supplement of paper PMC9112550, “Optimization of the antimicrobial peptide Bac7 by deep mutational scanning” (BMC Biology, 2022)

System: Escherichia coli TOP10
Test: shrunken log2 fold change of peptide-encoding DNA abundance (4.5 h post-induction vs induction); higher = less antimicrobial activity (less host growth inhibition)
Details: time post-induction: 4.5 h; library: site-saturation at positions 5, 18, 19, 20
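Further: peptides expressed intracellularly from a pBAD plasmid library in pooled LB shake-flask culture, induced with 0.3% L-arabinose, DNA abundance read by NGS, three biological replicates, DESeq2 with apeglm shrinkage.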

| Sequence | shrunken log2 fold change |
| --- | --- |
| RRIRDRPPRLPRPRPRPPGGPRP | 1.07 |
| RRIRDRPPRLPRPRPRPPGQPRP | 0.0311 |
| RRIRDRPPRLPRPRPRPPGRPRP | 0.104 |
| RRIRDRPPRLPRPRPRPPHEPRP | 0.00485 |
| RRIRDRPPRLPRPRPRPPHKPRP | 0.0115 |
| RRIRDRPPRLPRPRPRPPKLPRP | 0.0369 |
| RRIRDRPPRLPRPRPRPPKMPRP | 0.166 |
| RRIRDRPPRLPRPRPRPPLDPRP | 0.652 |
| RRIRDRPPRLPRPRPRPPLEPRP | 0.699 |
| RRIRDRPPRLPRPRPRPPLQPRP | 0.414 |
| RRIRDRPPRLPRPRPRPPMYPRP | -0.405 |
| RRIRDRPPRLPRPRPRPPNHPRP | -0.205 |
| RRIRDRPPRLPRPRPRPPPPPRP | 0.899 |
| RRIRDRPPRLPRPRPRPPPQPRP | 0.775 |
| RRIRDRPPRLPRPRPRPPPRPRP | 1.1 |
| RRIRDRPPRLPRPRPRPPQEPRP | 0.559 |
| RRIRDRPPRLPRPRPRPPQIPRP | -0.179 |
| RRIRDRPPRLPRPRPRPPQQPRP | -0.089 |
| RRIRDRPPRLPRPRPRPPREPRP | 0.837 |
| RRIRDRPPRLPRPRPRPPRRPRP | 0.635 |
| RRIRDRPPRLPRPRPRPPTPPRP | 0.564 |
| RRIRDRPPRLPRPRPRPPTYPRP | -0.383 |
| RRIRDRPPRLPRPRPRPPWVPRP | -0.0472 |
| RRIRDRPPRLPRPRPRPPYTPRP | -0.0539 |
| RRIRDRPPRLPRPRPRPQAEPRP | -0.129 |

| Sequence | shrunken log2 fold change |
| --- | --- |
| RRIRDRPPRLPRPRPRPQAPPRP | -0.0631 |
| RRIRDRPPRLPRPRPRPQCDPRP | -0.0921 |
| RRIRDRPPRLPRPRPRPQCLPRP | 0.0413 |
| RRIRDRPPRLPRPRPRPQCMPRP | -0.0894 |
| RRIRDRPPRLPRPRPRPQDSPRP | 0.00388 |
| RRIRDRPPRLPRPRPRPQGGPRP | -0.17 |
| RRIRDRPPRLPRPRPRPQGTPRP | 0.165 |
| RRIRDRPPRLPRPRPRPQHEPRP | -0.00197 |
| RRIRDRPPRLPRPRPRPQHWPRP | 0.122 |
| RRIRDRPPRLPRPRPRPQIHPRP | -0.145 |
| RRIRDRPPRLPRPRPRPQKQPRP | 0.086 |
| RRIRDRPPRLPRPRPRPQLFPRP | -0.0901 |
| RRIRDRPPRLPRPRPRPQQIPRP | -0.148 |
| RRIRDRPPRLPRPRPRPQRMPRP | -0.0312 |
| RRIRDRPPRLPRPRPRPQRRPRP | 0.255 |
| RRIRDRPPRLPRPRPRPQSIPRP | 0.00839 |
| RRIRDRPPRLPRPRPRPQTGPRP | -0.283 |
| RRIRDRPPRLPRPRPRPQVHPRP | -0.0385 |
| RRIRDRPPRLPRPRPRPRAGPRP | 0.741 |
| RRIRDRPPRLPRPRPRPRAMPRP | -0.0837 |
| RRIRDRPPRLPRPRPRPRCAPRP | 0.885 |
| RRIRDRPPRLPRPRPRPRCQPRP | -0.128 |
| RRIRDRPPRLPRPRPRPRCRPRP | -0.0929 |
| RRIRDRPPRLPRPRPRPRDSPRP | -0.153 |
| RRIRDRPPRLPRPRPRPRENPRP | 0.415 |

| Sequence | shrunken log2 fold change |
| --- | --- |
| RRIRDRPPRLPRPRPRPRGTPRP | -0.217 |
| RRIRDRPPRLPRPRPRPRGWPRP | 1.35 |
| RRIRDRPPRLPRPRPRPRHQPRP | 0.0533 |
| RRIRDRPPRLPRPRPRPRKTPRP | 0.379 |
| RRIRDRPPRLPRPRPRPRKWPRP | -0.0062 |
| RRIRDRPPRLPRPRPRPRLIPRP | -0.189 |
| RRIRDRPPRLPRPRPRPRLMPRP | 0.163 |
| RRIRDRPPRLPRPRPRPRMNPRP | -0.168 |
| RRIRDRPPRLPRPRPRPRMRPRP | 0.984 |
| RRIRDRPPRLPRPRPRPRNRPRP | 0.0378 |
| RRIRDRPPRLPRPRPRPRPKPRP | 0.548 |
| RRIRDRPPRLPRPRPRPRRHPRP | 0.172 |
| RRIRDRPPRLPRPRPRPRVVPRP | 0.11 |
| RRIRDRPPRLPRPRPRPRWYPRP | -0.0526 |
| RRIRDRPPRLPRPRPRPRYFPRP | 0.242 |
| RRIRDRPPRLPRPRPRPRYLPRP | -0.171 |
| RRIRDRPPRLPRPRPRPSADPRP | 0.368 |
| RRIRDRPPRLPRPRPRPSCEPRP | 0.042 |
| RRIRDRPPRLPRPRPRPSCKPRP | -0.1 |
| RRIRDRPPRLPRPRPRPSDFPRP | 0.259 |
| RRIRDRPPRLPRPRPRPSDKPRP | 0.0657 |
| RRIRDRPPRLPRPRPRPSEQPRP | 0.0598 |
| RRIRDRPPRLPRPRPRPSFIPRP | -0.572 |
| RRIRDRPPRLPRPRPRPSFLPRP | -0.197 |
| RRIRDRPPRLPRPRPRPSGLPRP | 0.284 |

| Sequence | shrunken log2 fold change |
| --- | --- |
| RRIRDRPPRLPRPRPRPSHLPRP | -0.248 |
| RRIRDRPPRLPRPRPRPSIEPRP | 0.089 |
| RRIRDRPPRLPRPRPRPSIKPRP | -0.491 |
| RRIRDRPPRLPRPRPRPSKDPRP | -0.242 |
| RRIRDRPPRLPRPRPRPSSIPRP | 0.0533 |
| RRIRDRPPRLPRPRPRPSTTPRP | 0.0945 |
| RRIRDRPPRLPRPRPRPSVIPRP | 0.0683 |
| RRIRDRPPRLPRPRPRPSWCPRP | -0.0805 |
| RRIRDRPPRLPRPRPRPSWPPRP | 0.399 |
| RRIRDRPPRLPRPRPRPTAEPRP | 1.4 |
| RRIRDRPPRLPRPRPRPTCDPRP | 0.224 |
| RRIRDRPPRLPRPRPRPTDDPRP | -0.0281 |
| RRIRDRPPRLPRPRPRPTDRPRP | 0.694 |
| RRIRDRPPRLPRPRPRPTFAPRP | 0.454 |
| RRIRDRPPRLPRPRPRPTFDPRP | 0.853 |
| RRIRDRPPRLPRPRPRPTFVPRP | 0.177 |
| RRIRDRPPRLPRPRPRPTGNPRP | 0.195 |
| RRIRDRPPRLPRPRPRPTIKPRP | -0.295 |
| RRIRDRPPRLPRPRPRPTKMPRP | 0.269 |
| RRIRDRPPRLPRPRPRPTMHPRP | 0.61 |
| RRIRDRPPRLPRPRPRPTMQPRP | 0.625 |
| RRIRDRPPRLPRPRPRPTPAPRP | 0.551 |
| RRIRDRPPRLPRPRPRPTRAPRP | 0.889 |
| RRIRDRPPRLPRPRPRPTRCPRP | 1.35 |
| RRIRDRPPRLPRPRPRPTSQPRP | 0.495 |

| Sequence | shrunken log2 fold change |
| --- | --- |
| RRIRDRPPRLPRPRPRPTTHPRP | 0.313 |
| RRIRDRPPRLPRPRPRPTTLPRP | 0.525 |
| RRIRDRPPRLPRPRPRPTYSPRP | -0.757 |
| RRIRDRPPRLPRPRPRPVAAPRP | 0.833 |
| RRIRDRPPRLPRPRPRPVAHPRP | -0.0445 |
| RRIRDRPPRLPRPRPRPVAKPRP | 0.356 |
| RRIRDRPPRLPRPRPRPVANPRP | -0.0229 |
| RRIRDRPPRLPRPRPRPVCLPRP | 0.345 |
| RRIRDRPPRLPRPRPRPVDAPRP | -0.0229 |
| RRIRDRPPRLPRPRPRPVDEPRP | -0.023 |
| RRIRDRPPRLPRPRPRPVDPPRP | 0.0517 |
| RRIRDRPPRLPRPRPRPVDSPRP | -0.0208 |
| RRIRDRPPRLPRPRPRPVDTPRP | -0.0119 |
| RRIRDRPPRLPRPRPRPVEKPRP | 0.0436 |
| RRIRDRPPRLPRPRPRPVELPRP | -0.0194 |
| RRIRDRPPRLPRPRPRPVFSPRP | 0.111 |
| RRIRDRPPRLPRPRPRPVFYPRP | -0.301 |
| RRIRDRPPRLPRPRPRPVGFPRP | 0.859 |
| RRIRDRPPRLPRPRPRPVHAPRP | 0.209 |
| RRIRDRPPRLPRPRPRPVHYPRP | 0.0175 |
| RRIRDRPPRLPRPRPRPVICPRP | 0.0219 |
| RRIRDRPPRLPRPRPRPVINPRP | -0.0846 |
| RRIRDRPPRLPRPRPRPVKRPRP | 0.0129 |
| RRIRDRPPRLPRPRPRPVMAPRP | 0.774 |
| RRIRDRPPRLPRPRPRPVMCPRP | 0.156 |

| Sequence | shrunken log2 fold change |
| --- | --- |
| RRIRDRPPRLPRPRPRPVMLPRP | -0.0376 |
| RRIRDRPPRLPRPRPRPVPHPRP | 0.012 |
| RRIRDRPPRLPRPRPRPVPMPRP | 0.115 |
| RRIRDRPPRLPRPRPRPVQQPRP | -0.00151 |
| RRIRDRPPRLPRPRPRPVRLPRP | 0.28 |
| RRIRDRPPRLPRPRPRPVRMPRP | 0.059 |
| RRIRDRPPRLPRPRPRPVRNPRP | 0.282 |
| RRIRDRPPRLPRPRPRPVRRPRP | 0.971 |
| RRIRDRPPRLPRPRPRPVRWPRP | 1.2 |
| RRIRDRPPRLPRPRPRPVSCPRP | 0.342 |
| RRIRDRPPRLPRPRPRPVTNPRP | 0.102 |
| RRIRDRPPRLPRPRPRPVTWPRP | 0.0882 |
| RRIRDRPPRLPRPRPRPVVEPRP | 0.321 |
| RRIRDRPPRLPRPRPRPVVYPRP | -0.349 |
| RRIRDRPPRLPRPRPRPVYGPRP | -0.322 |
| RRIRDRPPRLPRPRPRPVYPPRP | -0.089 |
| RRIRDRPPRLPRPRPRPVYQPRP | -0.263 |
| RRIRDRPPRLPRPRPRPWAYPRP | 0.0388 |
| RRIRDRPPRLPRPRPRPWCKPRP | -0.171 |
| RRIRDRPPRLPRPRPRPWCLPRP | -0.129 |
| RRIRDRPPRLPRPRPRPWDCPRP | -0.103 |
| RRIRDRPPRLPRPRPRPWDRPRP | -0.193 |
| RRIRDRPPRLPRPRPRPWELPRP | 0.18 |
| RRIRDRPPRLPRPRPRPWFCPRP | -0.272 |
| RRIRDRPPRLPRPRPRPWFVPRP | -0.18 |
